Like-named read-outs stand apart in the source and are kept apart here. Each block holds one molecule with its values, some of them ahead of it.
Legend:
Assay in all cases: SPR (Biacore 3000), G-CSFR amine-coupled to CM5 chip, 1:1 Langmuir fit
[1] = target: G-CSF receptor G-CSFR (R & D company, Item No. 381GR/CF) (UniProt Q99062)
[2] = target: T1, G-CSF receptor G-CSFR (R & D company, Item No. 381GR/CF) (UniProt Q99062 25-621, limits assumed)
T1 construct: Bought reagent, amine-coupled to a CM5 chip; also called the receptor
T1 sequence (looked up): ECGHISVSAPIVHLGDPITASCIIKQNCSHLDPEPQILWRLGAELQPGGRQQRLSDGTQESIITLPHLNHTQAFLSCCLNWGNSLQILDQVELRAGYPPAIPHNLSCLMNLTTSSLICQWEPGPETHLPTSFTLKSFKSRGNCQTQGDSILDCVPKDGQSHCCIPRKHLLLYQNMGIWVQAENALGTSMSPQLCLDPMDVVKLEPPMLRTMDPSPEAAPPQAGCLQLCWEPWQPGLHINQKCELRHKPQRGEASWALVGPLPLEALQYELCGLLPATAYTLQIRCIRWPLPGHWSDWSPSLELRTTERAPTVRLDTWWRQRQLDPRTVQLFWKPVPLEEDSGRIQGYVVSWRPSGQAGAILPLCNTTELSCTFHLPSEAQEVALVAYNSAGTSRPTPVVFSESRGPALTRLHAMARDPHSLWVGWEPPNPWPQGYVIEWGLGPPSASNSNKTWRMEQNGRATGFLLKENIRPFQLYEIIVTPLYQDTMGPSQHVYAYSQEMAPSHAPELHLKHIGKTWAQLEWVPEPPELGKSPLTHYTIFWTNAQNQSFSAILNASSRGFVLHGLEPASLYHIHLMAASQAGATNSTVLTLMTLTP
Experimental: (§1) The receptor G-CSFR (R & D company, Item No. 381GR/CF) was coupled to FC₄ cell of a CM5 chip by using an amine coupling method in Biacore® 3000 control software Wizard. HBS-P buffer (10 mM HEPES, 150 mM NaCl, and 0.005% (v/v) surfactant P20, pH 7.4) was used as the working buffer, and 1 mg/mL of G-CSFR was diluted with 10 mM NaAC (pH 4.5) to a final concentration of 20 μg/mL. A 1:1 mixture of 0.2 M EDC and 50 mM NHS was injected by flowing through the surface of the chip at a rate of 10 μL/min, G-CSFR solution was injected, then 1 M ethanolamine (pH 8.5) was injected for 7 min to block the activated chip surface.
(§2) rHSA/mG-CSF and G-CSF standards were quantitatively diluted with a HBS-P buffer, and a kinetic test was conducted following a kinetic analysis Wizard in Biacore® 3000 control software. All the samples were injected at the flow rate of 30 μL/min, and the injection time of 3 min. After 5 min of disassociation, 50 mM NaOH, 1 M NaCL, and HBS-P buffer were respectively injected for 15 s and 60 s at a flow rate of 100 μL/min for regeneration. The obtained data was fitted using a 1:1 Langmuir binding model in Biacore 3000 analysis software, to obtain exact kinetic constants: […]

[3] = target: T1, G-CSF receptor G-CSFR (R & D company, …); remark: listed apart in the source
Experimental: as §1, §2

Kd [1]: 11.2 nM
Molecule: rHSA/G-CSF mutant L19I (from UniProt P09919 31-207) (ligand)

Kd [1]: 1.3 nM
Molecule: recombinant human serum albumin-granulocyte-colony stimulating factor fusion protein (rHSA/G-CSF) (ligand)

Kd [2]: 0.3 nM
Kd [3]: 0.3 nM
B1: human granulocyte-colony stimulating factor (G-CSF) (ligand)
chain: TPLGPASSLPQSFLLKCLEQVRKIQGDGAALQEKLCATYKLCHPEELVLLGHSLGIPWAPLSSCPSQALQLAGCLSQLHSGLFLYQGLLQALEGISPELGPTLDTLQLDVADFATTIWQQMEELGMAPALQPTQGAMPAFASAFQRRAGGVLVASHLQSFLEVSYRVLRHLAQP
notes: also called G-CSF standards
